{"source": "patent US20230364000A1", "about": "“COMPOSITIONS COMPRISING COMBINATIONS OF COLLAGEN OR ELASTIN POLYPEPTIDES WITH ACTIVE INGREDIENTS AND METHODS OF USING SAME” (Geltor, Inc., priority 2020, published 2023)", "molecules": {"B1": {"name": "SEQ ID NO: 16: truncated human collagen type 21 alpha 1 without the DsbA secretion tag, recombinantly expressed in E. coli (protein)", "chain": "AGFPGLPGPAGEPGRHGKDGLMGSPGFKGEAGSPGAPGQDGTRGEPGIPGFPGNRGLMGQKGEIGPPGQQGKKGAPGMPGLMGSNGSPGQPGTPGSKGSKGEPGIQGMPGASGLKGEPGATGSPGEPGYMGLPGIQGKKGDKGNQGEKGIQGQKGENGRQGIPGQQGIQGHHGAKGERGEKGEPGVR"}}, "key": {"[1]": {"tested_on": "facial skin", "assay": "SIAscope dermal collagen, clinical study of Example 3", "assay_type": "in vivo, human", "settings": "0.1% w/w topical formulation, Week 2", "method": "(§1) A clinical study using human subjects to determine the effects of a topical skincare product containing truncated human type 21 collagen (SEQ ID NO: 16) is performed. The research is performed according to U.S. and International standards of Good Clinical Practice (FDA and ICH guidelines) and applicable government regulations.\n(§2) A base formulation (control formulation) made of water, olive oil glycereth-8 esters, glycerin, coconut alkanes, hydroxyethyl acrylate/sodium acryloyldimethyl taurate copolymer, pentylene glycol, disodium EDTA, caprylyl glycol, chlorphenesin, phenoxyethanol is prepared. A formulation containing the truncated human type 21 collagen is prepared by adding sufficient collagen to prepare a topical formulation containing 0.1% w/w collagen.\nThe COSMETRICS™ SIAScope (Astron Clinica, Toft, UK) is a non-invasive optical skin imaging instrument using Spectrophotometric Intracutaneous Analysis (SIA), or chromophore mapping. The technique is based on a unique combination of dermatoscopy and contact remittance spectrophotometry. The hardware consists of a hand-held imaging probe attached to a laptop computer. The unit is placed in contact with the skin surface and high-intensity LED's illuminate the skin as discreet wavelengths of 400 to 1000 nm, spanning the visible spectrum and a small range of the near infrared spectrum. A digital image is captured for each wavelength. Three parametric chromophore maps are retrieved up to 2 mm in depth and 11 mm in circumference, one for each of the following parameters: epidermal melanin, dermal hemoglobin and dermal collagen.\nFor the purposes of this study, dermal collagen will be measured on the left or right cheek, per a prepared randomization code, at baseline and at weeks 2, 4, and 8. Assessment location will be recorded on a face map for each subject for consistency of measurements between visits.\n(§3) Improvements in skin hydration, firmness, and elasticity were statistically significant."}, "[2]": {"tested_on": "Human full-thickness skin equivalents (MatTek Epiderm FT co-culture tissue models)", "assay": "Elastin production in human full-thickness skin equivalents (ELISA)", "assay_type": "cell-based", "settings": "polypeptide 0.1% w/w, retinol (10, unit not given), ascorbic acid 2% w/w, FIG. 20", "from_the_text": "The combination of the truncated human type 21 collagen polypeptide with retinol increased elastin production by 45% relative to untreated control. This appeared to be a synergistic effect as treatment with truncated human type 21 collagen polypeptide alone increased elastin production by 20% and treatment with retinol alone increased elastin production by 17%. The combination of the truncated human type 21 collagen polypeptide with ascorbic acid increased elastin production by 33% relative to untreated control. This appeared to be a synergistic effect as treatment with truncated human type 21 collagen polypeptide alone increased elastin production by 20% and treatment with ascorbic acid alone increased elastin production by 5%."}, "[3]": {"tested_on": "facial skin", "assay": "Facial skin redness, clinical study of Example 5", "assay_type": "in vivo, human", "settings": "topical facial serum 0.1%, n=15, FIG. 8", "from_the_text": "(§4) In a clinical study (n=15 subjects), subjects used a topical facial serum containing 0.1% of a polypeptide of SEQ ID NO: 16 for 8 weeks, after using a protein-free base facial serum for a 1-week washout period."}, "[4]": {"tested_on": "fibroblasts", "assay": "RNA sequencing of extracellular matrix gene expression in fibroblasts", "assay_type": "cell-based, human", "settings": "0.03%, 48 hours", "method": "RNA sequencing was performed to analyze global gene expression. After 48 hours of exposure, fibroblasts were incubated with 0.03% of a polypeptide according to SEQ ID NO: 16. These fibroblasts expressed higher levels of several extracellular matrix genes than cells incubated in media alone. […] This response was similar to fibroblasts treated with Vitamin C (FIG. 2A; “D”)."}, "[5]": {"tested_on": "facial skin", "assay": "Facial wrinkles, clinical study of Example 5", "assay_type": "in vivo, human", "settings": "topical facial serum 0.1%, n=15, FIG. 9", "from_the_text": "as §4"}, "[6]": {"tested_on": "facial skin", "assay": "Corneometer skin hydration, clinical study of Example 3", "assay_type": "in vivo, human", "design": "key to Corneometer Mean Percent Improvement From BL mean: NI = No Improvement", "settings": "0.1% w/w topical formulation; for Corneometer Mean ± SD: n 14, baseline 42.45 ± 10.06", "method": "as §1, §2\nThe corneometer CM 820 (Courage+Khazaka, Germany) measures the relative degree of hydration of the skin surface by applying an alternating current to the skin with a closely spaced pair of electrodes and measuring the capacitance. Changes in water content of the skin change the conductance of the capacitive circuit.\nThe corneometer is able to detect slight changes in the hydration level reproducibly with a measurement time of only about one second. The measurement depth is small (approximately 10-20 μm of stratum corneum) which ensures assessment is not influenced by deeper skin layers.\nAll subjects undergo corneometer measurements of their face at baseline, immediately post-initial-application, and at weeks 2, 4, and 8. Measurements will be taken in triplicate and averaged for each time point. Measurement location is recorded on a face map for assessment consistency at each time point.\nas §3"}, "[7]": {"tested_on": "facial skin", "assay": "Cutometer facial skin elasticity, clinical study of Example 5", "assay_type": "in vivo, human", "settings": "topical facial serum 0.1%, n=15, FIG. 6", "from_the_text": "as §4, with “period. Topical application of a polypeptide of SEQ ID NO: 16 was associated with increased skin elasticity, measured using a cutometer.” for “period.”"}, "[8]": {"assay": "Oxygen radical absorbance capacity (ORAC) assay, cell-free", "assay_type": "biochemical", "settings": "0.1% solution", "method": "The antioxidant potential of a polypeptide of SEQ ID NO: 16 was assessed using the oxygen free radical absorbance capacity (ORAC) assay. The ORAC assay is a cell-free assay that uses a fluorescent readout to measure a product's antioxidant capacity. Data is reported in Trolox (Vitamin E) equivalents.\nA polypeptide of SEQ ID NO: 5 was also evaluated in the ORAC assay.\nAn oxygen radical absorbance capacity (ORAC) assay was performed to analyze the anti-oxidative capacity of a polypeptide according to SEQ ID NO: 52. The ORAC assay is a cell-free assay that uses a fluorescent readout to measure anti-oxidative capacity. Data is reported in Trolox (Vitamin E) equivalents (TEs)."}, "[9]": {"tested_on": "human primary keratinocytes", "assay": "IL-la ELISA in UVB-irradiated keratinocytes", "assay_type": "cell-based", "settings": "40 mJ/cm^2 UVB, then 0.1% for 24 hours; compared to untreated UVB-irradiated keratinocytes; FIG. 3", "method": "Human primary keratinocytes were irradiated with 40 mJ/cm^2 UVB light, and then treated with 0.1% of a polypeptide of SEQ ID NO: 16 for 24 hours. Levels of the pro-inflammatory cytokines IL-la were determined by ELISA."}}, "data": [{"molecule": "B1", "values": [{"measurement": "SIAscope Collagen Mean Percent Improvement From BL mean", "setting": "[1]", "value": 6.72, "unit": "%"}, {"measurement": "SIAscope Collagen Percent of Subjects Showing Improvement From BL", "setting": "[1]", "value": 78.6, "unit": "%"}, {"measurement": "SIAscope Collagen Mean ± SD", "setting": "[1]; n 14, baseline 238.95 ± 11.60, P-value 0.004*", "value": "254.89 ± 19.35"}, {"measurement": "increase of elastin production relative to untreated control", "setting": "[2]; day 2 supernatant", "value": 20, "unit": "%"}, {"measurement": "production of elastin as compared to untreated cells", "setting": "[2]; each agent alone, day 2, hyaluronic acid 0.1% w/w", "value": "increased production"}, {"measurement": "skin redness", "setting": "[3]; 4 weeks vs baseline", "value": "decrease"}, {"measurement": "skin redness", "setting": "[3]; 8 weeks vs baseline", "value": "decrease"}, {"measurement": "elastin gene (ELN) expression", "setting": "[4]; relative to untreated cells and various marine collagens, FIG. 2B", "value": "upregulated"}, {"measurement": "collagen type I gene (COL1A) expression", "setting": "[4]; relative to untreated cells or retinol, similar to Vitamin C, FIG. 2A", "value": "upregulated"}, {"measurement": "fibronectin gene (FN1) expression", "setting": "[4]; relative to untreated cells, retinol and Vitamin C, FIG. 2C", "value": "upregulated"}, {"measurement": "facial wrinkles", "setting": "[5]; 4 weeks vs baseline", "value": "reduction"}, {"measurement": "facial wrinkles", "setting": "[5]; 8 weeks vs baseline", "value": "reduction"}, {"measurement": "Corneometer Mean Percent Improvement From BL mean", "setting": "[6]; Immediate", "value": 36.69, "unit": "%"}, {"measurement": "Corneometer Percent of Subjects Showing Improvement From BL", "setting": "[6]; Immediate", "value": 100, "unit": "%"}, {"measurement": "Corneometer Mean ± SD", "setting": "[6]; Immediate, P-value <0.001*", "value": "57.22 ± 12.47"}, {"measurement": "Corneometer Mean Percent Improvement From BL mean", "setting": "[6]; Week 2", "value": "NI"}, {"measurement": "Corneometer Percent of Subjects Showing Improvement From BL", "setting": "[6]; Week 2", "value": 14.3, "unit": "%"}, {"measurement": "Corneometer Mean ± SD", "setting": "[6]; Week 2, P-value 0.001** (significant worsening)", "value": "35.71 ± 10.77"}, {"measurement": "subjects showing improvement with an increase in skin elasticity", "setting": "[7]; 2 weeks vs baseline", "value": 100, "unit": "%"}, {"measurement": "subjects showing improvement with an increase in skin elasticity", "setting": "[7]; 4 weeks vs baseline", "value": 100, "unit": "%"}, {"measurement": "antioxidant properties, Trolox (Vitamin E) equivalents", "setting": "[8]", "value": 190, "unit": "μM Trolox"}, {"measurement": "levels of IL-la", "setting": "[9]", "value": "lower levels"}]}]}
